# B1: Clone #25 (S003-A4-025-T7_A04), full length (ssDNA)
# DNA: TCAGCCGCCAGCCAGTTCGTTTTAAGAAATTAGCACACCGTTGACTTGTTTAGTGGCGGACCAGAGCACCACAGAG
# modifications: n in core = 5-(N-benzylaminocarbonyl)-2'-deoxyuridine (BzdU) [n positions 20,21,22,23,30,31,41,42,46,47,49,50,51,54 = modified dU]
# B2: Clone #21 (S003-A4-021-T7_E03), full length (ssDNA)
# DNA: TCAGCCGCCAGCCAGTTCCGAGGGAGTTATGGAGATTGTGTTGTTTAAGGTCGGAACTGACCAGAGCACCACAGAG
# modifications: n in core = 5-(N-benzylaminocarbonyl)-2'-deoxyuridine (BzdU) [n positions 27,28,30,36,37,39,41,42,44,45,46,51,58 = modified dU]
# B3: Clone #12 (S003-A4-012-T7_D02), full length (ssDNA)
# DNA: TCAGCCGCCAGCCAGTTCAGTTGCCAATTTGCAGCCTAGGATACGTTTTCGAAACTGCAGACCAGAGCACCACAGAG
# modifications: n in core = 5-(N-benzylaminocarbonyl)-2'-deoxyuridine (BzdU) [n positions 21,22,28,29,30,37,42,46,47,48,49,56 = modified dU]
# B4: Clone #11 (S003-A4-011-T7_C02), full length (ssDNA)
# DNA: TCAGCCGCCAGCCAGTTCTTTTAATCTTCTCTGTCAGATGGCTGGTAGGGTGTATGACGACCAGAGCACCACAGAG
# modifications: n in core = 5-(N-benzylaminocarbonyl)-2'-deoxyuridine (BzdU) [n positions 19,20,21,22,25,27,28,30,32,34,39,43,46,51,53,55 = modified dU]
# Assays:
# Settings in all cases: tags: R&D Systems 3050-AV
# Integrin alpha-v beta-3 [1] = target: T1, Integrin alpha-v beta-3 (UniProt P06756;P05106 P06756:31-992,P05106:27-718); experiment: filter; Bmax 0.82; HEPES, NaCl, KCl, MgCl2 buffer, 37 C
# T1 sequence (P06756 31-992, chain 1 of 2): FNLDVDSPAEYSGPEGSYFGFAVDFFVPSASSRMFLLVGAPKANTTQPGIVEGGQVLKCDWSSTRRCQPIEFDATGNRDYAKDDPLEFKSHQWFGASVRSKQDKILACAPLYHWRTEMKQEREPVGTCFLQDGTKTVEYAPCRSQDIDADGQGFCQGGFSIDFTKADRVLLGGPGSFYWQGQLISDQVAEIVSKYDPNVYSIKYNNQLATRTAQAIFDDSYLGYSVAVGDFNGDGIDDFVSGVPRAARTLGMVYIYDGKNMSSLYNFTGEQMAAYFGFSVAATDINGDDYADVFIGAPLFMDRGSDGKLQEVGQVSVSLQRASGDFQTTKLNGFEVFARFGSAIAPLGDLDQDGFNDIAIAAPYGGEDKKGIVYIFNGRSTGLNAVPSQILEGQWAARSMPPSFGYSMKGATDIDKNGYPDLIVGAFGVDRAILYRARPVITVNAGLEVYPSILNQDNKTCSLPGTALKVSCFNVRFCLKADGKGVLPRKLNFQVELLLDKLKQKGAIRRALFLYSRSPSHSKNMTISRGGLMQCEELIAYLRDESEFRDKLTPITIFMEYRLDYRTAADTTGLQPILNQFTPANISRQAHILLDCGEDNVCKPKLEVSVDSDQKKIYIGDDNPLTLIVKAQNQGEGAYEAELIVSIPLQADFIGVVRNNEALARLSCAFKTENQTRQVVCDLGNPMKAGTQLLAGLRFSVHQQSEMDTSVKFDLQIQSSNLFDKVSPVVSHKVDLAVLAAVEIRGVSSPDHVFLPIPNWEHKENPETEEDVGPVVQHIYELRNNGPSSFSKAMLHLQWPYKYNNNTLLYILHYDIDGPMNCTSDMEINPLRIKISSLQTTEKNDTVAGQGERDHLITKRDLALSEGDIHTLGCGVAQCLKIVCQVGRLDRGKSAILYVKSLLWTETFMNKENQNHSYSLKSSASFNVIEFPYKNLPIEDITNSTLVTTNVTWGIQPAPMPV
# T1 sequence (P05106 27-718, chain 2 of 2): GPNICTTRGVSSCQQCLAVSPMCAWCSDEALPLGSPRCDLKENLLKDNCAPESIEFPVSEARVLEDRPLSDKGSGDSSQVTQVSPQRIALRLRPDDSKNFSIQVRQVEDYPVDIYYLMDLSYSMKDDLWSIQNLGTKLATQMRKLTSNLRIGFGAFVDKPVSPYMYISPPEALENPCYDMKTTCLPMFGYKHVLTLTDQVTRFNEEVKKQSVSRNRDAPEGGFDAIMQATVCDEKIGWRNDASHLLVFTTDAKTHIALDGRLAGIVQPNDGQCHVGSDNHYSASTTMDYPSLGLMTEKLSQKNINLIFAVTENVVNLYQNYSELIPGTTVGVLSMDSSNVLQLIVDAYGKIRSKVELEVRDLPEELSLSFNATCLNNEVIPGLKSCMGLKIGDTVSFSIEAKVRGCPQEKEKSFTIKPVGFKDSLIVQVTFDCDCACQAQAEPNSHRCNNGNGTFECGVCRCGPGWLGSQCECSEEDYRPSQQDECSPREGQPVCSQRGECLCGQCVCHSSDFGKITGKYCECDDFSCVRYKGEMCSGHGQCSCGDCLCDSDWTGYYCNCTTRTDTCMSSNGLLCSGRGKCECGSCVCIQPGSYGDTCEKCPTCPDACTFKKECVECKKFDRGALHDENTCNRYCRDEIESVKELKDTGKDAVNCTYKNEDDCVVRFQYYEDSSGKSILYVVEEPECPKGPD
# Method: (§1) 20,000 cpm of the labeled DNA pool were put in 100 μL 1×SB buffer (200 mM HEPES, 510 mM NaCl, 25 mM KCl, 25 mM MgCl₂), and slowly cooled from 95° C. to 37° C. at a rate of 0.1° C./sec. And, integrin αᵥβ₃ (R&D systems, 3050-AV) was serially diluted to 12 points at 100 nM using buffer (200 mM HEPES, 510 mM NaCl, 25 mM KCl, 25 mM MgCl₂), and then, 30 μL of the above heated and cooled DNA pool was respectively added and reacted at 37° C. for 30 minutes. A nylon membrane (GE healthcare) was spotted with 2 μL of the complex of DNA and integrin αᵥβ₃, and then, 5.5 μL of zorbax resin (Agilent) was added thereto. And, it was put in a Durapore filter (Millipore) previously wetted with 50 μL of 1×SB buffer (200 mM HEPES, 510 mM NaCl, 25 mM KCl, 25 mM MgCl₂) and vacuum was applied. And, the membrane filter was washed with 100 μL of 1× selection buffer (200 mM HEPES, 510 mM NaCl, 25 mM KCl, 25 mM MgCl₂). The filter plate was exposed to an image plate overnight, and then, images were quantified with FLA-5100 (Fuji).
# (§2) In order to examine binding affinity of clone having repeatedly observed base sequence, filter binding assay was conducted by the same method as pool binding assay. The binding affinity was calculated using SigmaPlot 11 (Systat Software Inc.) from the value obtained through the filter binding assay, and the results are shown in the following Table 4. […]
# Integrin alpha-v beta-3 [2] = target: T1, Integrin alpha-v beta-3; experiment: filter; Bmax 0.88; HEPES, NaCl, KCl, MgCl2 buffer, 37 C
# Method: as §1, §2
# Integrin alpha-v beta-3 [3] = target: T1, Integrin alpha-v beta-3; experiment: filter; Bmax 0.69; HEPES, NaCl, KCl, MgCl2 buffer, 37 C
# Method: as §1, §2
# Integrin alpha-v beta-3 [4] = target: T1, Integrin alpha-v beta-3; experiment: filter; Bmax 0.56; HEPES, NaCl, KCl, MgCl2 buffer, 37 C
# Method: as §1, §2
binder,measurement,setting,value
B1,Kd,Integrin alpha-v beta-3 [1],17.6 nM
B2,Kd,Integrin alpha-v beta-3 [2],59 nM
B3,Kd,Integrin alpha-v beta-3 [3],23.2 nM
B4,Kd,Integrin alpha-v beta-3 [4],38 nM
